# B1: Protein canopy homolog 2 (Mus musculus), Q9QXT0 (parent)
# chain: MKGWGWLALLLGVLLGTAWARRSQDLHCGACRALVDELEWEIARVDPKKTIQMGSFRINPDGSQSVVEVPYARSEAHLTELLEEVCDRMKEYGEQIDPSTHRKNYVRVVSRNGESSELDLQGIRIDSDISGTLKFACESIVEEYEDELIEFFSREADNVKDKLCSKRTDLCDHALHRSHDEL
# partner: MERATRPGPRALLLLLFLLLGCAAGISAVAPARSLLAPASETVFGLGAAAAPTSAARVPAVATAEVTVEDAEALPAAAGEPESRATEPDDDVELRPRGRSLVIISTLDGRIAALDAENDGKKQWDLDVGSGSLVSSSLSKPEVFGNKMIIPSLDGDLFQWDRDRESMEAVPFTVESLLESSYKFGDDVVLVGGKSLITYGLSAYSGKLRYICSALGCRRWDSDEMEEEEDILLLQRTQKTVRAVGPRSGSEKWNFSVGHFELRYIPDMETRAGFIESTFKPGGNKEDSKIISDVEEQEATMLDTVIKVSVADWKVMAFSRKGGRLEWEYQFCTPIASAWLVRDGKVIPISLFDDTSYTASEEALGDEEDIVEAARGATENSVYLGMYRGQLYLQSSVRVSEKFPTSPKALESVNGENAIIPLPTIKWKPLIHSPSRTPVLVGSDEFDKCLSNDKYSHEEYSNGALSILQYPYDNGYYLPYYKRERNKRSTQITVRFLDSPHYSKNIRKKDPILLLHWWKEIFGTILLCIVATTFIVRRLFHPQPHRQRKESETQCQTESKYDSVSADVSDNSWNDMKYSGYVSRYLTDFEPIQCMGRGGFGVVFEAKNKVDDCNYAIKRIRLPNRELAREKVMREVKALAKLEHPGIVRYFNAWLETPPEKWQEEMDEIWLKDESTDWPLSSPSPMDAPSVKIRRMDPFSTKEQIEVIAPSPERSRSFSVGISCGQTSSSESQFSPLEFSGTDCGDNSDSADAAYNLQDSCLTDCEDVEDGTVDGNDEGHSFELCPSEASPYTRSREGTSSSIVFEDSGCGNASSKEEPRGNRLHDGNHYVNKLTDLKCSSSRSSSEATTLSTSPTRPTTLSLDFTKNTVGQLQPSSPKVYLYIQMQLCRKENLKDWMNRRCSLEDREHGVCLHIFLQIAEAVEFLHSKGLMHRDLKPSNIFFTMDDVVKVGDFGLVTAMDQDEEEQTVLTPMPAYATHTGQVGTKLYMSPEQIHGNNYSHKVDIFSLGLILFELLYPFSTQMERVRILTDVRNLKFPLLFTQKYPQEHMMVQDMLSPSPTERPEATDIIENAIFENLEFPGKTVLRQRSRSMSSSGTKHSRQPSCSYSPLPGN
# Variants of: B1
# Conditions: with Eif2ak3, Q9Z2B5
row,Variant,effect of a mutation on the interaction
1,C28A;C31A;C86A,increasing interaction

# Variants of: B1
# Conditions: with Eif2ak3, Q9Z2B5
# Remark: another data set of the same source
row,Variant,effect of a mutation on the interaction
1,C28A;C31A;C86A;C137A;C164A;C171A,disrupting interaction
